We go through five substances from patent publication US20240238459.

The subject of series [1] is T1, substrate sequence FVQWFSKFLGK (SEQ ID NO:3).
T1 sequence: FVQWFSKFLGK

In series [2] the test system is T2, granzyme B-cleavable restricted interaction peptide (GRIP B), full length.
T2 sequence: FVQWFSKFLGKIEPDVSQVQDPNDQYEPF

For series [3], the system named is T3, quenched fluorogenic peptide NH2-K(MCA)IEPDVSQVK(DNP)-COOH.
T3 sequence: KIEPDVSQVK

Another series relates to T4, ^64Cu-GRIP B.
T4 sequence: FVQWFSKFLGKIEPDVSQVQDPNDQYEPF

With MMP9, the “protease specificity (cleavage activity; enzyme 5 nM, substrate 60 µM)” value (from here on “protease specificity”) in series [1] is listed as “the substrate sequence is highly specific for granzyme B compared to the other proteases tested”. The same measure, in the same setting: under caspase 3 stands “the substrate sequence is highly specific for granzyme B compared to the other proteases tested”. On to caspase 8, for which, in series [1], the “protease specificity” value is “the substrate sequence is highly specific for granzyme B compared to the other proteases tested”. Consider recombinant human granzyme B, for which the “protease specificity” value in series [1] is on record as “the substrate sequence is highly specific for granzyme B compared to the other proteases tested”. Further, the proteolytic cleavage result in series [2] is listed as “full length GRIP B was efficiently cleaved by recombinant human GZMB”. Besides, in series [3], the kcat/Km entry is listed as “˜8000 M^-1 sec^-1”. The “proteolytic conversion on radio-HPLC” value in the series on ^64Cu-GRIP B is “showed conversion within 30 minutes to one radiolabeled product”. Take thrombin: the “protease specificity” value in series [1] was “the substrate sequence is highly specific for granzyme B compared to the other proteases tested”.
